For one data set, the target named is T1, YvcJ (Bacillus subtilis, UniProt O06973).
T1 construct: 6His-tagged recombinant YvcJ
T1 sequence (O06973 1-295): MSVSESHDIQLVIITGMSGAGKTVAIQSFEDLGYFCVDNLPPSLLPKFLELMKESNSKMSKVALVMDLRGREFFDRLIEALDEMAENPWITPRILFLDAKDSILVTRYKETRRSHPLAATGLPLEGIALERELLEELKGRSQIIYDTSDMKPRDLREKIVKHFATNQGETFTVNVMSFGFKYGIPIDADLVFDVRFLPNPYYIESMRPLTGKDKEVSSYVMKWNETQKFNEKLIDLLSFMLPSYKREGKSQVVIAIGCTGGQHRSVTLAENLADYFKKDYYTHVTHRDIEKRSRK
The data set can be described thus: thermal shift assay (SYPRO Orange) with apparent KD; supported by limited proteolysis with endoproteinase Glu-C. The data set is classed as binding.

Data set [1] concerns the molecule itself. The data set can be described thus: dynamic light scattering; 24 µM YvcJ with 7 µM GlmR (ratio 1:0.3 YvcJ:GlmR) and 0.4 mM UDP-GlcNAc; 25 °C; 50 mM Tris-HCl pH 7.5, 50 mM NaCl, 5% glycerol.
Data set [2] deals with the molecule itself. Put plainly: dynamic light scattering; 24 µM YvcJ alone, without or with 0.4 mM UDP-GlcNAc; 25 °C; 50 mM Tris-HCl pH 7.5, 50 mM NaCl, 5% glycerol.
The target in data set [3] is T2, GlmS, glucosamine-6-phosphate synthase from B. subtilis, with a C-terminal 6His-tag (Bacillus subtilis 168, UniProt P0CI73 1-600).
T2 sequence (looked up): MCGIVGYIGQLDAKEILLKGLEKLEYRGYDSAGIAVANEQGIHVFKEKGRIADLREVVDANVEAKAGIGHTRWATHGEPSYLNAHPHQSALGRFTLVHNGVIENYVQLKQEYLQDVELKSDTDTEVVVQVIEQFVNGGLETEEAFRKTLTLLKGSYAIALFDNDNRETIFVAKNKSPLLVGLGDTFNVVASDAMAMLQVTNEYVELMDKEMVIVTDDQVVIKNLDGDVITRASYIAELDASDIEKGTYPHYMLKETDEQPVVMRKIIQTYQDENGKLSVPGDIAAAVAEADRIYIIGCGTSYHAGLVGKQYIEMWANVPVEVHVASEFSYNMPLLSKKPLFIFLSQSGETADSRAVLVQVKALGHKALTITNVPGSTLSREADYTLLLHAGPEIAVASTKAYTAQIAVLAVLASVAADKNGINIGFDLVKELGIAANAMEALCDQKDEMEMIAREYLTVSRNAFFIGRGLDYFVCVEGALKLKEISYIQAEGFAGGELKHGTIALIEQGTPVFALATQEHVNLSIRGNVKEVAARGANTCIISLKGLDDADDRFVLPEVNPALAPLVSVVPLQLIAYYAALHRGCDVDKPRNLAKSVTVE
The data set can be described thus: cell-based or functional assay.

Data set [4] concerns the target T3, YvcJ, purified 6His-tagged protein (Bacillus subtilis, UniProt O06973 1-295).
T3 chain: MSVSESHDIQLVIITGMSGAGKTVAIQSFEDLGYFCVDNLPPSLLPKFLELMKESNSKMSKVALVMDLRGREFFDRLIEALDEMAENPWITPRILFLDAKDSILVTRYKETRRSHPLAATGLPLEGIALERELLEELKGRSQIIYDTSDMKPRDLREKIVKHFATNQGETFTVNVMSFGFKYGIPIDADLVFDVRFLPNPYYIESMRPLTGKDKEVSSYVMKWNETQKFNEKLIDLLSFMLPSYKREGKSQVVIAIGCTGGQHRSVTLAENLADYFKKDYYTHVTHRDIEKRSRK

Data set [5] addresses T3, YvcJ, purified 6His-tagged protein. Put plainly: ITC; 1 mM UDP-GlcNAc. (In general: ITC needs no label: the signal is the heat of the interaction.)

For orientation: stoichiometry N means a count of units in the complex or per binding partner.

For the molecule `CC(=O)N[C@H]1[C@@H](OP(=O)(O)OP(=O)(O)OC[C@H]2O[C@@H](n3ccc(=O)[nH]c3=O)[C@H](O)[C@@H]2O)O[C@H](CO)[C@@H](O)[C@@H]1O` [UDP-GlcNAc], the Kd on YvcJ was 280 ± 470 µM.

B1: YvcJ, purified 6His-tagged protein (natural protein, Bacillus subtilis, UniProt O06973 1-295, looked up)
chain: MSVSESHDIQLVIITGMSGAGKTVAIQSFEDLGYFCVDNLPPSLLPKFLELMKESNSKMSKVALVMDLRGREFFDRLIEALDEMAENPWITPRILFLDAKDSILVTRYKETRRSHPLAATGLPLEGIALERELLEELKGRSQIIYDTSDMKPRDLREKIVKHFATNQGETFTVNVMSFGFKYGIPIDADLVFDVRFLPNPYYIESMRPLTGKDKEVSSYVMKWNETQKFNEKLIDLLSFMLPSYKREGKSQVVIAIGCTGGQHRSVTLAENLADYFKKDYYTHVTHRDIEKRSRK
notes: Cloned BamHI/XhoI in pET21: the His tag is probably C-terminal and vector residues may precede Met1 (surmised); also called RapZ homologue; source: purified (Ni2+-NTA resin, PD-10 column) as previously described
For B1, the “stoichiometry N” value in data set [1] is 5 molecules; in data set [2], ~15 molecules.

B2: GlmR (formerly YvcK), purified 6His-tagged protein (natural protein)
chain: MGQKPKIAIFGGGTGLSVLLRGLKHKPVDITAIVTVADDGGSSGRLRNELKIPPPGDIRNVLAALSDVEPLVEDLFQHRFNKGNDLTGHSLGNLILAAMTNITGDFFHAVTEMSKVLNVRGKVLPAANASVVLHAEMEDGRVVSGESTIPEYGQRIKRVFLTPEQIDPLPETIDVIREADLIIIGPGSLYTSILPNLLVPKIGEEVIKAPAKKVYICNVMTQPGETLHYTAADHVKALNQHMGCGFIDTILVNSEDIPDEIKRKYEMESARPVDFDIEELKAMGLEVIRDQIVTYKNDVIRHDTHKVASLLVDLLKE
On to B2, for which the “GlmS specific activity (GlcN6P produced, enzyme-coupled assay with GNA-1, CoASH at 412 nm, 37 °C); 7.3 µM GlmS with 0 to 32.1 µM GlmR, no UDP-GlcNAc” value in data set [3] amounted to 16 fold. The hydrodynamic size of YvcJ by dynamic light scattering; 24 µM YvcJ titrated with GlmR at a ratio 1:0.3 in the presence of 0.4 mM UDP-GlcNAc in data set [4] amounted to 124 nm. In data set [5], this molecule showed a Kd of 9.03 µM.

For the origin of these results see paper PMC7525490, “Uridine diphosphate N-acetylglucosamine orchestrates the interaction of GlmR with either YvcJ or GlmS in Bacillus subtilis” (Scientific Reports, 2020).
